Reference: patent publication US20260001928A1 (CORTERIA PHARMACEUTICALS, priority 2022, published 2026)
*1 amine or outer side, *2 acyl side, *3 side chain or, on linkers, in order; H or OH if unused. Where no end group is shown, it is not given here. Side-chain parts run from the residue outwards. [ ]: non-standard residue; d: D form. The star is where a group is joined. C18 diacid = O=C(O)CCCCCCCCCCCCCCCCC(=O)*; C16 diacid = O=C(O)CCCCCCCCCCCCCCC(=O)*; γGlu = O=C(O)[C@H](CCC(=O)[*:2])N[*:1]; NMeI = CC[C@H](C)[C@H](NC)C(=O)O; Ac5c = NC1(C(=O)O)CCCC1; Ac3c = NC1(C(=O)O)CC1; Aib = CC(C)(N)C(=O)O

T1: CRF1R receptor (UniProt P34998 24-415, limits assumed)
T1 sequence (looked up): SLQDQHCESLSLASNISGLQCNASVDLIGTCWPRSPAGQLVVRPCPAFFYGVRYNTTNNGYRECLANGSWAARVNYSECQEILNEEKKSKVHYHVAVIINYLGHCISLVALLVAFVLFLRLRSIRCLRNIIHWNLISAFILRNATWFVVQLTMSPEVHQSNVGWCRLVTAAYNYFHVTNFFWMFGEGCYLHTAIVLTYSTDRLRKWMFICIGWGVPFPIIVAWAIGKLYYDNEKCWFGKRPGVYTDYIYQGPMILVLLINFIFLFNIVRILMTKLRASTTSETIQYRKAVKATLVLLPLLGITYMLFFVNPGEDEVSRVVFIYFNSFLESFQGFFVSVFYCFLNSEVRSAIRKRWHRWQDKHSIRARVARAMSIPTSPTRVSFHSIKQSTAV

B1: SEQ ID NO 74 (peptide)
peptide: [NMeI]VLSLD[dV]PIKLK([γGlu-C16 diacid])KILLEQEKQKAQREQAETN[Aib]QILAQV-NH2
modifications: N-terminus assumed
SMILES: CC[C@H](C)[C@H](NC)C(=O)N[C@H](C(=O)N[C@@H](CC(C)C)C(=O)N[C@@H](CO)C(=O)N[C@@H](CC(C)C)C(=O)N[C@@H](CC(=O)O)C(=O)N[C@@H](C(=O)N1CCC[C@H]1C(=O)N[C@H](C(=O)N[C@@H](CCCCN)C(=O)N[C@@H](CC(C)C)C(=O)N[C@@H](CCCCNC(=O)CC[C@H](NC(=O)CCCCCCCCCCCCCCC(=O)O)C(=O)O)C(=O)N[C@@H](CCCCN)C(=O)N[C@H](C(=O)N[C@@H](CC(C)C)C(=O)N[C@@H](CC(C)C)C(=O)N[C@@H](CCC(=O)O)C(=O)N[C@@H](CCC(N)=O)C(=O)N[C@@H](CCC(=O)O)C(=O)N[C@@H](CCCCN)C(=O)N[C@@H](CCC(N)=O)C(=O)N[C@@H](CCCCN)C(=O)N[C@@H](C)C(=O)N[C@@H](CCC(N)=O)C(=O)N[C@@H](CCCNC(=N)N)C(=O)N[C@@H](CCC(=O)O)C(=O)N[C@@H](CCC(N)=O)C(=O)N[C@@H](C)C(=O)N[C@@H](CCC(=O)O)C(=O)N[C@H](C(=O)N[C@@H](CC(N)=O)C(=O)NC(C)(C)C(=O)N[C@@H](CCC(N)=O)C(=O)N[C@H](C(=O)N[C@@H](CC(C)C)C(=O)N[C@@H](C)C(=O)N[C@@H](CCC(N)=O)C(=O)N[C@H](C(N)=O)C(C)C)[C@@H](C)CC)[C@@H](C)O)[C@@H](C)CC)[C@@H](C)CC)C(C)C)C(C)C
B2: SEQ ID NO 135 (peptide)
peptide: Ac-IVLSLD[dV]PIKLK([γGlu-C18 diacid])KILLEQEKQKKQREQAETN[Ac5c]QILAQV-NH2
SMILES: CC[C@H](C)[C@H](NC(C)=O)C(=O)N[C@H](C(=O)N[C@@H](CC(C)C)C(=O)N[C@@H](CO)C(=O)N[C@@H](CC(C)C)C(=O)N[C@@H](CC(=O)O)C(=O)N[C@@H](C(=O)N1CCC[C@H]1C(=O)N[C@H](C(=O)N[C@@H](CCCCN)C(=O)N[C@@H](CC(C)C)C(=O)N[C@@H](CCCCNC(=O)CC[C@H](NC(=O)CCCCCCCCCCCCCCCCC(=O)O)C(=O)O)C(=O)N[C@@H](CCCCN)C(=O)N[C@H](C(=O)N[C@@H](CC(C)C)C(=O)N[C@@H](CC(C)C)C(=O)N[C@@H](CCC(=O)O)C(=O)N[C@@H](CCC(N)=O)C(=O)N[C@@H](CCC(=O)O)C(=O)N[C@@H](CCCCN)C(=O)N[C@@H](CCC(N)=O)C(=O)N[C@@H](CCCCN)C(=O)N[C@@H](CCCCN)C(=O)N[C@@H](CCC(N)=O)C(=O)N[C@@H](CCCNC(=N)N)C(=O)N[C@@H](CCC(=O)O)C(=O)N[C@@H](CCC(N)=O)C(=O)N[C@@H](C)C(=O)N[C@@H](CCC(=O)O)C(=O)N[C@H](C(=O)N[C@@H](CC(N)=O)C(=O)NC1(C(=O)N[C@@H](CCC(N)=O)C(=O)N[C@H](C(=O)N[C@@H](CC(C)C)C(=O)N[C@@H](C)C(=O)N[C@@H](CCC(N)=O)C(=O)N[C@H](C(N)=O)C(C)C)[C@@H](C)CC)CCCC1)[C@@H](C)O)[C@@H](C)CC)[C@@H](C)CC)C(C)C)C(C)C
B3: SEQ ID NO 60 (peptide)
peptide: Ac-IVLSLD[dV]PIKLK([γGlu-C16 diacid])KILLEQEKQKKQREQAETN[Ac5c]QILAQV-NH2
SMILES: CC[C@H](C)[C@H](NC(C)=O)C(=O)N[C@H](C(=O)N[C@@H](CC(C)C)C(=O)N[C@@H](CO)C(=O)N[C@@H](CC(C)C)C(=O)N[C@@H](CC(=O)O)C(=O)N[C@@H](C(=O)N1CCC[C@H]1C(=O)N[C@H](C(=O)N[C@@H](CCCCN)C(=O)N[C@@H](CC(C)C)C(=O)N[C@@H](CCCCNC(=O)CC[C@H](NC(=O)CCCCCCCCCCCCCCC(=O)O)C(=O)O)C(=O)N[C@@H](CCCCN)C(=O)N[C@H](C(=O)N[C@@H](CC(C)C)C(=O)N[C@@H](CC(C)C)C(=O)N[C@@H](CCC(=O)O)C(=O)N[C@@H](CCC(N)=O)C(=O)N[C@@H](CCC(=O)O)C(=O)N[C@@H](CCCCN)C(=O)N[C@@H](CCC(N)=O)C(=O)N[C@@H](CCCCN)C(=O)N[C@@H](CCCCN)C(=O)N[C@@H](CCC(N)=O)C(=O)N[C@@H](CCCNC(=N)N)C(=O)N[C@@H](CCC(=O)O)C(=O)N[C@@H](CCC(N)=O)C(=O)N[C@@H](C)C(=O)N[C@@H](CCC(=O)O)C(=O)N[C@H](C(=O)N[C@@H](CC(N)=O)C(=O)NC1(C(=O)N[C@@H](CCC(N)=O)C(=O)N[C@H](C(=O)N[C@@H](CC(C)C)C(=O)N[C@@H](C)C(=O)N[C@@H](CCC(N)=O)C(=O)N[C@H](C(N)=O)C(C)C)[C@@H](C)CC)CCCC1)[C@@H](C)O)[C@@H](C)CC)[C@@H](C)CC)C(C)C)C(C)C
B4: SEQ ID NO 61 (peptide)
peptide: Ac-IVLSLD[dV]PIKLK([γGlu-C16 diacid])KILLEQEKQKKQREQAETN[Ac3c]QILAQV-NH2
SMILES: CC[C@H](C)[C@H](NC(C)=O)C(=O)N[C@H](C(=O)N[C@@H](CC(C)C)C(=O)N[C@@H](CO)C(=O)N[C@@H](CC(C)C)C(=O)N[C@@H](CC(=O)O)C(=O)N[C@@H](C(=O)N1CCC[C@H]1C(=O)N[C@H](C(=O)N[C@@H](CCCCN)C(=O)N[C@@H](CC(C)C)C(=O)N[C@@H](CCCCNC(=O)CC[C@H](NC(=O)CCCCCCCCCCCCCCC(=O)O)C(=O)O)C(=O)N[C@@H](CCCCN)C(=O)N[C@H](C(=O)N[C@@H](CC(C)C)C(=O)N[C@@H](CC(C)C)C(=O)N[C@@H](CCC(=O)O)C(=O)N[C@@H](CCC(N)=O)C(=O)N[C@@H](CCC(=O)O)C(=O)N[C@@H](CCCCN)C(=O)N[C@@H](CCC(N)=O)C(=O)N[C@@H](CCCCN)C(=O)N[C@@H](CCCCN)C(=O)N[C@@H](CCC(N)=O)C(=O)N[C@@H](CCCNC(=N)N)C(=O)N[C@@H](CCC(=O)O)C(=O)N[C@@H](CCC(N)=O)C(=O)N[C@@H](C)C(=O)N[C@@H](CCC(=O)O)C(=O)N[C@H](C(=O)N[C@@H](CC(N)=O)C(=O)NC1(C(=O)N[C@@H](CCC(N)=O)C(=O)N[C@H](C(=O)N[C@@H](CC(C)C)C(=O)N[C@@H](C)C(=O)N[C@@H](CCC(N)=O)C(=O)N[C@H](C(N)=O)C(C)C)[C@@H](C)CC)CC1)[C@@H](C)O)[C@@H](C)CC)[C@@H](C)CC)C(C)C)C(C)C
B5: SEQ ID NO 136 (peptide)
peptide: Ac-IVLSLD[dV]PIKLK([γGlu-C18 diacid])KILLEQEKQKKQREQAETN[Ac3c]QILAQV-NH2
SMILES: CC[C@H](C)[C@H](NC(C)=O)C(=O)N[C@H](C(=O)N[C@@H](CC(C)C)C(=O)N[C@@H](CO)C(=O)N[C@@H](CC(C)C)C(=O)N[C@@H](CC(=O)O)C(=O)N[C@@H](C(=O)N1CCC[C@H]1C(=O)N[C@H](C(=O)N[C@@H](CCCCN)C(=O)N[C@@H](CC(C)C)C(=O)N[C@@H](CCCCNC(=O)CC[C@H](NC(=O)CCCCCCCCCCCCCCCCC(=O)O)C(=O)O)C(=O)N[C@@H](CCCCN)C(=O)N[C@H](C(=O)N[C@@H](CC(C)C)C(=O)N[C@@H](CC(C)C)C(=O)N[C@@H](CCC(=O)O)C(=O)N[C@@H](CCC(N)=O)C(=O)N[C@@H](CCC(=O)O)C(=O)N[C@@H](CCCCN)C(=O)N[C@@H](CCC(N)=O)C(=O)N[C@@H](CCCCN)C(=O)N[C@@H](CCCCN)C(=O)N[C@@H](CCC(N)=O)C(=O)N[C@@H](CCCNC(=N)N)C(=O)N[C@@H](CCC(=O)O)C(=O)N[C@@H](CCC(N)=O)C(=O)N[C@@H](C)C(=O)N[C@@H](CCC(=O)O)C(=O)N[C@H](C(=O)N[C@@H](CC(N)=O)C(=O)NC1(C(=O)N[C@@H](CCC(N)=O)C(=O)N[C@H](C(=O)N[C@@H](CC(C)C)C(=O)N[C@@H](C)C(=O)N[C@@H](CCC(N)=O)C(=O)N[C@H](C(N)=O)C(C)C)[C@@H](C)CC)CC1)[C@@H](C)O)[C@@H](C)CC)[C@@H](C)CC)C(C)C)C(C)C
B6: SEQ ID NO 75 (peptide)
peptide: [NMeI]VLSLD[dV]PIKLK([γGlu-C16 diacid])KILLEQEKQK[Aib]QREQAETN[Aib]QILAQV-NH2
modifications: N-terminus assumed
SMILES: CC[C@H](C)[C@H](NC)C(=O)N[C@H](C(=O)N[C@@H](CC(C)C)C(=O)N[C@@H](CO)C(=O)N[C@@H](CC(C)C)C(=O)N[C@@H](CC(=O)O)C(=O)N[C@@H](C(=O)N1CCC[C@H]1C(=O)N[C@H](C(=O)N[C@@H](CCCCN)C(=O)N[C@@H](CC(C)C)C(=O)N[C@@H](CCCCNC(=O)CC[C@H](NC(=O)CCCCCCCCCCCCCCC(=O)O)C(=O)O)C(=O)N[C@@H](CCCCN)C(=O)N[C@H](C(=O)N[C@@H](CC(C)C)C(=O)N[C@@H](CC(C)C)C(=O)N[C@@H](CCC(=O)O)C(=O)N[C@@H](CCC(N)=O)C(=O)N[C@@H](CCC(=O)O)C(=O)N[C@@H](CCCCN)C(=O)N[C@@H](CCC(N)=O)C(=O)N[C@@H](CCCCN)C(=O)NC(C)(C)C(=O)N[C@@H](CCC(N)=O)C(=O)N[C@@H](CCCNC(=N)N)C(=O)N[C@@H](CCC(=O)O)C(=O)N[C@@H](CCC(N)=O)C(=O)N[C@@H](C)C(=O)N[C@@H](CCC(=O)O)C(=O)N[C@H](C(=O)N[C@@H](CC(N)=O)C(=O)NC(C)(C)C(=O)N[C@@H](CCC(N)=O)C(=O)N[C@H](C(=O)N[C@@H](CC(C)C)C(=O)N[C@@H](C)C(=O)N[C@@H](CCC(N)=O)C(=O)N[C@H](C(N)=O)C(C)C)[C@@H](C)CC)[C@@H](C)O)[C@@H](C)CC)[C@@H](C)CC)C(C)C)C(C)C

Target: T1, CRF1R receptor
Experiment: cell-based or functional assay

Emax (% I) [%] | Binder
7 | B1
15 | B2
5 | B3
3 | B4
5 | B5
3 | B6

Target: human corticotropin-releasing factor 2a (CRF2a receptor) (human), Q13324
Sequence (Q13324 20-411): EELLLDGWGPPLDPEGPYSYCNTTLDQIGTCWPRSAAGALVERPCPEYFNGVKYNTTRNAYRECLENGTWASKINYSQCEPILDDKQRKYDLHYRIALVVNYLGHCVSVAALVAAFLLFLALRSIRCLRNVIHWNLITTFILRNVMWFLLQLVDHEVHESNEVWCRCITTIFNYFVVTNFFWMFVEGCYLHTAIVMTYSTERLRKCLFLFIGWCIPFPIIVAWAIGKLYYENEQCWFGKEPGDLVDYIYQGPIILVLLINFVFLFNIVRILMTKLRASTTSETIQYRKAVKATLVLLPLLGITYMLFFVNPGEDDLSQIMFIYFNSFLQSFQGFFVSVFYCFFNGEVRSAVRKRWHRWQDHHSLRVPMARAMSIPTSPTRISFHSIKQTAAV
Experiment: cell-based or functional assay

EC50 [nM] (cAMP) | Binder
0.15 | B1
0.19 | B2
0.34 | B3
0.36 | B4
0.16 | B5
0.19 | B6
